Data reported in patent US20260216326A1 (PROMETHEUS BIOSCIENCES, published 2026).

T1: human TL1A (Fitzgerald #30R-AT070) (human, UniProt O95150 72-251, limits assumed)
T1 construct: Coated on the ELISA plate at 1 ug/mL; also called TNFSF15
T1 sequence (looked up): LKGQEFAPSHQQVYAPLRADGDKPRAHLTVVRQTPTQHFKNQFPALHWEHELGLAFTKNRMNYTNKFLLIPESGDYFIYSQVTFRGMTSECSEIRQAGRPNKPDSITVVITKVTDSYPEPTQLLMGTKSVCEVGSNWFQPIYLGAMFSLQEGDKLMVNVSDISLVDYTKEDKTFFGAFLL


Target: T1, human TL1A (Fitzgerald #30R-AT070)
Assay: ELISA titration, coated human TL1A, culture supernatant

Binder | Kd [nM]
A108 (antibody, human IgG1, V domains shown, human IgG1/kappa (pFuse vectors), culture supernatant) VH: EVQLVQSGAEVKKPGASVKVSCKASGFDIQDTYMHWVRQAPGQGLEWMGRIEPASGHIKYDPKFQGRVTMTRDTSTSTVYMELSSLRSEDTAVYYCARSGGLPDWWGQGTTVTVSS VL: EIVLTQSPGTLSLSPGERATLSCRASSSVSYMYWYQQKPGQAPRPWIYATSNLASGIPDRFSGSGSGTDFTLTISRLEPEDFAVYYCQQWEGNPRTFGGGTKLEIK | 0.055
A110 (antibody, human IgG1, V domains shown, human IgG1/kappa (pFuse vectors), culture supernatant) VH: QVQLVQSGAEVKKPGASVKVSCKASGFDIQDTYMHWVKQAPGQGLEWMGRIEPASGHIKYDPKFQGRVTMTRDTSTSTVYMELSSLRSEDTAVYYCARSGGLPDWWGQGTTVTVSS VL: EIVLTQSPGTLSLSPGERATLSCRASSSVSYMYWYQQKPGQAPRPWIYATSNLASGIPDRFSGSGSGTDFTLTISRLEPEDFAVYYCQQWEGNPRTFGGGTKLEIK | 0.056
A109 (antibody, human IgG1, V domains shown, human IgG1/kappa (pFuse vectors), culture supernatant) VH: QVQLVQSGAEVKKPGASVKVSCKASGFDIQDTYMHWVRQAPGQGLEWMGRIEPASGHIKYDPKFQGRVTMTRDTSTSTAYMELSSLRSEDTAVYYCARSGGLPDWWGQGTTVTVSS VL: EIVLTQSPGTLSLSPGERATLSCRASSSVSYMYWYQQKPGQAPRPWIYATSNLASGIPDRFSGSGSGTDFTLTISRLEPEDFAVYYCQQWEGNPRTFGGGTKLEIK | 0.05
A111 (antibody, human IgG1, V domains shown, human IgG1/kappa (pFuse vectors), culture supernatant) VH: QVQLVQSGAEVKKPGASVKVSCKASGFDIQDTYMHWVRQRPGQGLEWMGRIEPASGHIKYDPKFQGRVTMTRDTSTSTVYMELSSLRSEDTAVYYCARSGGLPDWWGQGTTVTVSS VL: EIVLTQSPGTLSLSPGERATLSCRASSSVSYMYWYQQKPGQAPRPWIYATSNLASGIPDRFSGSGSGTDFTLTISRLEPEDFAVYYCQQWEGNPRTFGGGTKLEIK | 0.068

The remaining lines, values ahead:

Kd [nM] | Binder
0.051 | A114 (antibody, human IgG1, V domains shown, human IgG1/kappa (pFuse vectors), culture supernatant) VH: QVQLVQSGAEVKKPGASVKVSCKASGFDIQDTYMHWVRQAPGQGLEWMGRIEPASGHIKYDPKFQVRVTMTRDTSTSTVYMELSSLRSEDTAVYYCARSGGLPDWWGQGTTVTVSS VL: EIVLTQSPGTLSLSPGERATLSCRASSSVSYMYWYQQKPGQAPRPWIYATSNLASGIPDRFSGSGSGTDFTLTISRLEPEDFAVYYCQQWEGNPRTFGGGTKLEIK
0.05 | A113 (antibody, human IgG1, V domains shown, human IgG1/kappa (pFuse vectors), culture supernatant) VH: QVQLVQSGAEVKKPGASVKVSCKASGFDIQDTYMHWVRQAPGQGLEWMGRIEPASGHIKYDPKFQVRATITRDTSTSTVYMELSSLRSEDTAVYYCARSGGLPDWWGQGTTVTVSS VL: EIVLTQSPGTLSLSPGERATLSCRASSSVSYMYWYQQKPGQAPRPWIYATSNLASGIPDRFSGSGSGTDFTLTISRLEPEDFAVYYCQQWEGNPRTFGGGTKLEIK
0.053 | A116 (antibody, human IgG1, V domains shown, human IgG1/kappa (pFuse vectors), culture supernatant) VH: QVQLVQSGAEVKKPGASVKVSCKASGFDIQDTYMHWVRQAPGQGLEWMGRIEPASGHIKYDPKFQVRVTITRDTSTSTVYMELSSLRSEDTAVYYCARSGGLPDWWGQGTTVTVSS VL: EIVLTQSPGTLSLSPGERATLSCRASSSVSYMYWYQQKPGQAPRPWIYATSNLASGIPDRFSGSGSGTDFTLTISRLEPEDFAVYYCQQWEGNPRTFGGGTKLEIK
0.058 | A115 (antibody, human IgG1, V domains shown, human IgG1/kappa (pFuse vectors), culture supernatant) VH: QVQLVQSGAEVKKPGASVKVSCKASGFDIQDTYMHWVRQAPGQGLEWMGRIEPASGHIKYDPKFQVRATMTRDTSTSTVYMELSSLRSEDTAVYYCARSGGLPDWWGQGTTVTVSS VL: EIVLTQSPGTLSLSPGERATLSCRASSSVSYMYWYQQKPGQAPRPWIYATSNLASGIPDRFSGSGSGTDFTLTISRLEPEDFAVYYCQQWEGNPRTFGGGTKLEIK
0.054 | A112 (antibody, human IgG1, V domains shown, human IgG1/kappa (pFuse vectors), culture supernatant) VH: QVQLVQSGAEVKKPGASVKVSCKASGFDIQDTYMHWVKQRPGQGLEWMGRIEPASGHIKYDPKFQGRVTMTRDTSTSTVYMELSSLRSEDTAVYYCARSGGLPDWWGQGTTVTVSS VL: EIVLTQSPGTLSLSPGERATLSCRASSSVSYMYWYQQKPGQAPRPWIYATSNLASGIPDRFSGSGSGTDFTLTISRLEPEDFAVYYCQQWEGNPRTFGGGTKLEIK
